{
  "source": "patent US20140242081A1",
  "key": {"[1]": {"biological_target": "human CD3 on T cells (human) (UniProt P07766)", "experiment": "cell-based or functional assay"}, "[2]": {"biological_target": "human CEA on cells (CHO/huCEA, ASPC-1, LS1034) (human) (UniProt P06731)", "sequence (P06731 35-702)": "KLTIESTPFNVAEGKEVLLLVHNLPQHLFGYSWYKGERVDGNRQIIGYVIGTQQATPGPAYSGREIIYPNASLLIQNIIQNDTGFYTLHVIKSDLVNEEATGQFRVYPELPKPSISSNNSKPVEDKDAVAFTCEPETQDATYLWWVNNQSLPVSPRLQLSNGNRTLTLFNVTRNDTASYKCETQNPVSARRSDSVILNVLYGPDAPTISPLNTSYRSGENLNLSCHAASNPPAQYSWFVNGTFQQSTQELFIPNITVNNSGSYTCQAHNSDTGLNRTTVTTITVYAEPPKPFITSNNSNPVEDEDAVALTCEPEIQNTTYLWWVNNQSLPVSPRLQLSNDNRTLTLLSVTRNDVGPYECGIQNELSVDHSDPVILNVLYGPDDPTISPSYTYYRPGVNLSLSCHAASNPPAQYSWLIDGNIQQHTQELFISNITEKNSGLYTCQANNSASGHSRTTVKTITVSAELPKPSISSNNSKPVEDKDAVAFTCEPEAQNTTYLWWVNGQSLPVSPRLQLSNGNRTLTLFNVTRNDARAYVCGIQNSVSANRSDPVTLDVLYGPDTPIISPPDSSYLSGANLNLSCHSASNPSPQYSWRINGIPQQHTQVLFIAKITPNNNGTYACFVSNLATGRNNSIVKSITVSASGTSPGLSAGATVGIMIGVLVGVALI", "experiment": "cell-based or functional assay"}, "human CD3 (human)": {"biological_target": "human CD3 (human) (UniProt P07766)", "experiment": "method not stated; KD of the CD3 binding arm, used to calculate fractional receptor occupancy"}},
  "note": "pKd: −log10 of the molar value.",
  "data": [
    {"substance": "MEDI-565 (bispecific antibody)", "values": [
      {"measurement": "EC20 of CD25 de novo expression, C/P (PBMC without CD14 cocultured with CHO/huCEA), mean", "setting": "[1]", "value": 0.217, "unit": "ng/mL"},
      {"measurement": "EC20 of CD25 upregulation on T cells (ASPC-1 target cells, PBMC with CD3ε, 48 h), mean of 10 donors", "setting": "[1]", "value": 0.376, "unit": "ng/mL"},
      {"measurement": "EC20 of CD69 de novo expression, A/3 (PBMC with CD3ε cocultured with ASPC-1), mean", "setting": "[1]", "value": 0.105, "unit": "ng/mL"},
      {"measurement": "EC20 of CD69 de novo expression, C/P (PBMC without CD14 cocultured with CHO/huCEA), mean", "setting": "[1]", "value": 0.134, "unit": "ng/mL"},
      {"measurement": "EC20 of CD69 upregulation on T cells (ASPC-1 target cells, PBMC with CD3ε, 48 h), mean of 5 donors", "setting": "[1]", "value": 0.441, "unit": "ng/mL"},
      {"measurement": "EC20 of IFNγ release (ASPC-1 target cells, PBMC with CD3ε, 48 h), mean", "setting": "[1]", "value": 1.56, "unit": "ng/mL"},
      {"measurement": "EC20 of IL2 release (ASPC-1 target cells, PBMC with CD3ε, 48 h), mean", "setting": "[1]", "value": 0.732, "unit": "ng/mL"},
      {"measurement": "EC20 of IL6 release (ASPC-1 target cells, PBMC with CD3ε, 48 h), mean", "setting": "[1]", "value": 1.83, "unit": "ng/mL"},
      {"measurement": "EC20 of IL10 release (ASPC-1 target cells, PBMC with CD3ε, 48 h), mean", "setting": "[1]", "value": 0.686, "unit": "ng/mL"},
      {"measurement": "EC20 of TNFα release (ASPC-1 target cells, PBMC with CD3ε, 48 h), mean", "setting": "[1]", "value": 1.29, "unit": "ng/mL"},
      {"measurement": "EC50 of CD25 upregulation on T cells (ASPC-1 target cells, PBMC with CD3ε, 48 h), mean of 10 donors", "setting": "[1]", "value": 4.65, "unit": "ng/mL"},
      {"measurement": "EC50 of CD69 de novo expression, A/3 (PBMC with CD3ε cocultured with ASPC-1), mean", "setting": "[1]", "value": 1.26, "unit": "ng/mL"},
      {"measurement": "EC50 of CD69 de novo expression, C/3 (PBMC with CD3ε cocultured with CHO/huCEA), one value", "setting": "[1]", "value": 1.34, "unit": "ng/mL"},
      {"measurement": "EC50 of CD69 upregulation on T cells (ASPC-1 target cells, PBMC with CD3ε, 48 h), mean of 5 donors", "setting": "[1]", "value": 13.8, "unit": "ng/mL"},
      {"measurement": "EC50 of IFNγ release (ASPC-1 target cells, PBMC with CD3ε, 48 h), mean", "setting": "[1]", "value": 3.29, "unit": "ng/mL"},
      {"measurement": "EC50 of IL2 release (ASPC-1 target cells, PBMC with CD3ε, 48 h), mean", "setting": "[1]", "value": 2.14, "unit": "ng/mL"},
      {"measurement": "EC50 of IL6 release (ASPC-1 target cells, PBMC with CD3ε, 48 h), mean", "setting": "[1]", "value": 4.04, "unit": "ng/mL"},
      {"measurement": "EC50 of IL10 release (ASPC-1 target cells, PBMC with CD3ε, 48 h), mean", "setting": "[1]", "value": 3.92, "unit": "ng/mL"},
      {"measurement": "EC50 of TNFα release (ASPC-1 target cells, PBMC with CD3ε, 48 h), mean", "setting": "[1]", "value": 6.56, "unit": "ng/mL"},
      {"measurement": "mean EC20 of CD25 upregulation (PBMC with CD3ε cocultured with CHO/huCEA, E:T 10:1, 72 h)", "setting": "[1]", "value": 0.269, "unit": "ng/mL"},
      {"measurement": "EC20 of specific lysis of ASPC-1 cells (PBMC with CD3ε, E:T 5:1, 48 h), mean of 10 donors", "setting": "[2]", "value": 0.097, "unit": "ng/mL"},
      {"measurement": "EC20 of specific lysis, C/P (CHO/huCEA cocultured with PBMC without CD14), mean", "setting": "[2]", "value": 0.371, "unit": "ng/mL"},
      {"measurement": "EC50 of specific lysis of ASPC-1 cells (PBMC with CD3ε, E:T 5:1, 48 h), mean of 10 donors", "setting": "[2]", "value": 2.03, "unit": "ng/mL"},
      {"measurement": "EC50 of specific lysis, A/P (ASPC-1 cocultured with PBMC without CD14), mean", "setting": "[2]", "value": 0.971, "unit": "ng/mL"},
      {"measurement": "mean EC20 of specific lysis of ASPC-1 cells (PBMC with CD3ε, E:T 5:1, 48 h; Example 1, 11 donors)", "setting": "[2]", "value": 0.05, "unit": "ng/mL"},
      {"measurement": "pKd", "setting": "human CD3 (human)", "value": 6.51}
    ]}
  ]
}
